Source: patent publication US20120251557A1 (VERENIGING VOOR CHRISTELIJK HOGER ONDERWIJS …, published 2012)

Columns and labels:
[1] = target: CD45 on human peripheral blood lymphocytes (PBL) (human) (UniProt P08575); assay: ELISA: MGL-Fc-coated plate captures ligands from PBL lysate, detection with panCD45 antibody; ++ = high binding (OD 450 nm >0.25)
[2] = target: B-containing CD45 isoforms from PBL (detected with anti-CD45RB); assay: ELISA: MGL-Fc-coated plate captures ligands from PBL lysate, detection with anti-CD45RB; ++ = high binding (OD 450 nm >0.25)
[3] = target: C-containing CD45 isoforms from PBL (detected with anti-CD45RC); assay: ELISA: MGL-Fc-coated plate captures ligands from PBL lysate, detection with anti-CD45RC; ++ = high binding (OD 450 nm >0.25)
[4] = target: human CD45B isoform in transfected murine 300-19 cells (human) (UniProt P08575); assay: ELISA: isoform pulled down from transfectant lysate with panCD45 antibody, probed with MGL-Fc; ++ = high binding (OD 450 nm >0.25)
[5] = target: human CD45BC isoform in transfected murine 300-19 cells (human) (UniProt P08575); assay: as above
[6] = target: human CD45ABC isoform in transfected murine 300-19 cells (human) (UniProt P08575); assay: as above
[7] = target: human CD45AB isoform in transfected murine 300-19 cells (human) (UniProt P08575); assay: as above
[8] = target: A-containing CD45 isoforms from PBL (detected with anti-CD45RA); assay: ELISA: MGL-Fc-coated plate captures ligands from PBL lysate, detection with anti-CD45RA; + = low binding (OD 450 nm <0.25)
[9] = target: CD45 on human peripheral blood lymphocytes (PBL) (human) (UniProt P08575); assay: cell-based or functional assay
[10] = target: T1, secreted tumor-associated MUC1 from the supernatant of ZR75 tumor cells (UniProt P15941 24-1097, limits assumed); assay: ELISA on coated MUC1 from ZR75 supernatant
T1 construct: Coated on ELISA plates, or loaded on beads through MUC1 antibodies; also called secreted MUC1 from tumor cell line ZR75
Source text: Example 2, FIG. 8. MGL-Fc detects secreted MUC1 from tumor cell line ZR75. FIG. 8A, MUC1 was harvested out of the supernatant of cultured ZR75 tumor cells and coated on ELISA plates. Both MGLFc and DC-SIGNFc were used to look for carbohydrate-binding epitopes expressed on tumor-associated MUC1. […] Furthermore, EGTA, which inhibits lectin binding to carbohydrates, illustrates that the recognition of MGL to MUC1 is carbohydrate mediated. FIG. 8B, in a second experiment, the tumor-associated MUC1 were coated on fluorescent beads coupled with MUC1 antibodies. Fluorescent MUC1-coupled beads were added to MGL-expressing CHO cells and untransfected CHO cells.
This experiment is depicted in FIG. 8 of Example 2. In FIG. 8A, MUC1 was harvested out of the supernatant of cultured ZR75 tumor cells and coated on ELISA plates. Both MGLFc and DC-SIGNFc were used to look for carbohydrate-binding epitopes expressed on tumor-associated MUC1. […] Furthermore, EGTA, which inhibits lectin binding to carbohydrates, illustrates that the recognition of MGL to MUC1 is mediated by the expression of carbohydrates.

Chain of CD45 on human peripheral blood lymphocytes (PBL) (human) (P08575 26-1306): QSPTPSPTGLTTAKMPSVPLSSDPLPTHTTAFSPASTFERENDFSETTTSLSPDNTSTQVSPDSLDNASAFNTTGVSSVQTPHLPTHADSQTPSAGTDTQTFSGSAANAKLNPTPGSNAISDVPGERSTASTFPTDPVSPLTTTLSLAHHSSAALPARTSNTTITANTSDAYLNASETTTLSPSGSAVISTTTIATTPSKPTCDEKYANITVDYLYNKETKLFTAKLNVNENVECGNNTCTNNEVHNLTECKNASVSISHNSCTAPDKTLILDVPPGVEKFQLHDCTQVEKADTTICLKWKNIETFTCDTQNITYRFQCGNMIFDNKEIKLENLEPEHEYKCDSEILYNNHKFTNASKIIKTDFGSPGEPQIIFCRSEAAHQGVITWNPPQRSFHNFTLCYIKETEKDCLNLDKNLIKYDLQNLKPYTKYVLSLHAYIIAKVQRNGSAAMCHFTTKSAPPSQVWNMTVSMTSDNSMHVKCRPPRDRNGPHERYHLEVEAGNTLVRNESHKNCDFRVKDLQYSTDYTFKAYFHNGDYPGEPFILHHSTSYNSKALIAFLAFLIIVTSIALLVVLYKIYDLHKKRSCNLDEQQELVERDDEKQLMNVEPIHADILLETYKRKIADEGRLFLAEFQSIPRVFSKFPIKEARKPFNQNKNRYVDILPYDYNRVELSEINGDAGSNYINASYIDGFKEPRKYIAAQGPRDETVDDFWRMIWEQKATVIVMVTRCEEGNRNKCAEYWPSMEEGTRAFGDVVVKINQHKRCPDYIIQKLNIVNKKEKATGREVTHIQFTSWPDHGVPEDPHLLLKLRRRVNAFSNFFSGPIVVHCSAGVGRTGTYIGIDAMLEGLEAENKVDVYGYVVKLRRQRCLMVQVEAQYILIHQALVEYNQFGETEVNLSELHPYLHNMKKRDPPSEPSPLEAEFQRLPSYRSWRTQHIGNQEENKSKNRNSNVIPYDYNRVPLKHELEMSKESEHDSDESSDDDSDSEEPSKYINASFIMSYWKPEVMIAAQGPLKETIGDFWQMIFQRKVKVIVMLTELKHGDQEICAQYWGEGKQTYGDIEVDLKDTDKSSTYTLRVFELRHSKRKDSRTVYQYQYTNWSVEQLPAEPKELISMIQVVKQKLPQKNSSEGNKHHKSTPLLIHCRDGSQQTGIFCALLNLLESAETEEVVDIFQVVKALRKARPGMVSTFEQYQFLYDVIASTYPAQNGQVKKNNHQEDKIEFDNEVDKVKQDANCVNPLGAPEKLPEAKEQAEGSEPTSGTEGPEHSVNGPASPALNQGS
Chain of human CD45ABC isoform in transfected murine 300-19 cells (human) (P08575 26-1306): as above
T1 sequence (P15941 24-1097 limits assumed): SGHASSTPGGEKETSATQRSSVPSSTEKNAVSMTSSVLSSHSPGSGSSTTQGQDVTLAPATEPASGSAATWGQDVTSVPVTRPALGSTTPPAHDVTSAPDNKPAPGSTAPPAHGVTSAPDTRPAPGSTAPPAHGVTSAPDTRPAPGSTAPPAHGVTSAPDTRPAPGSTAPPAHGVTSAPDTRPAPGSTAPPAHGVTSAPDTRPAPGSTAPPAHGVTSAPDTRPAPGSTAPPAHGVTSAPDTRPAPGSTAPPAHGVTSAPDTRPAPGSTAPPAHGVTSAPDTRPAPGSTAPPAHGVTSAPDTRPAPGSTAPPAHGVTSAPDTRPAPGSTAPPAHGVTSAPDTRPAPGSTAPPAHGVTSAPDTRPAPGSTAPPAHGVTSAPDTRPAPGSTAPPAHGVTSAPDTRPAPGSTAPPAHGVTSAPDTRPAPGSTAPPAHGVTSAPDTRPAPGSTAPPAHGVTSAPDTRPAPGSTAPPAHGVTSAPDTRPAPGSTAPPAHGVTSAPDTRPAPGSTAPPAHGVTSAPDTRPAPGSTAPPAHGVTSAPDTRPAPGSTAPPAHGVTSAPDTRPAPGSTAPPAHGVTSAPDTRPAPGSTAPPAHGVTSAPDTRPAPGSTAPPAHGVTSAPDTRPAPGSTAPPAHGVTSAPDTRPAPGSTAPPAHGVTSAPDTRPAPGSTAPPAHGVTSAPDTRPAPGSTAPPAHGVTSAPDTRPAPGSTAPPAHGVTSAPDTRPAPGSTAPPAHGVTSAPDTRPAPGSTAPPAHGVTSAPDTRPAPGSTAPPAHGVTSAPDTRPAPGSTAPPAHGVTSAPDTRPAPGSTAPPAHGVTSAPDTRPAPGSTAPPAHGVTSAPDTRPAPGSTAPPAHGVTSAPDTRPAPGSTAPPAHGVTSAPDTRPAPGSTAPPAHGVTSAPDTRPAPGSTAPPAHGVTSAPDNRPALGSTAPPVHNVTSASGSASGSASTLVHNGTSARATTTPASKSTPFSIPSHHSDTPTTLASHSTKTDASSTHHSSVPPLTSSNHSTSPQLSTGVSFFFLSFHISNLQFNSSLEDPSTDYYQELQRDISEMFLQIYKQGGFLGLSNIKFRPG

Molecule: MGL-Fc (extracellular part of human MGL, amino acids 61-289, fused at the C-terminus to human IgG1-Fc) (from UniProt Q8IUN9 61-289; P01857 99-330) (Fc fusion)
- OD 450 nm [1]: > 0.25 od
- OD 450 nm [2]: > 0.25 od
- OD 450 nm [3]: > 0.25 od
- OD 450 nm [4]: > 0.25 od
- OD 450 nm [5]: > 0.25 od
- OD 450 nm [6]: > 0.25 od
- OD 450 nm [7]: > 0.25 od
- OD 450 nm [8]: < 0.25 od

Molecule: Macrophage galactose-type lectin (MGL) on cells (CHO-MGL transfectants, monocyte-derived dendritic cells, dexamethasone-treated APC) (from UniProt Q8IUN9 1-316) (receptor)
- proliferation of allogeneic CD4+ T cells ([methyl-3H]thymidine) in co-culture with dexamethasone-treated APC, with or without blocking anti-MGL antibodies [9]: 3 fold

B1: DC-SIGN-Fc (Fc fusion, UniProt Q9NNX6 64-404, looked up)
chain: PSSISQEQSRQDAIYQNLTQLKAAVGELSEKSKLQEIYQELTQLKAAVGELPEKSKLQEIYQELTRLKAAVGELPEKSKLQEIYQELTWLKAAVGELPEKSKMQEIYQELTRLKAAVGELPEKSKQQEIYQELTRLKAAVGELPEKSKQQEIYQELTRLKAAVGELPEKSKQQEIYQELTQLKAAVERLCHPCPWEWTFFQGNCYFMSNSQRNWHDSITACKEVGAQLVVIKSAEEQNFLQLQSSRSNRFTWMGLSDLNQEGTWQWVDGSPLLPSFKQYWNRGEPNNVGEEDCAEFSGNGWNDDKCNLAKFWICKKSAASCSRDEEQFLSPAPATPNPPPA
notes: not shown: Fc part not described
- binding result [10]: no binding
